# According to the supplement of paper PMC9112550, “Optimization of the antimicrobial peptide Bac7 by deep mutational scanning” (BMC Biology, 2022):
# Test system: Escherichia coli TOP10
# Assay: shrunken log2 fold change of peptide-encoding DNA abundance (4.5 h post-induction vs induction); higher = less antimicrobial activity (less host growth inhibition)
# Details: time post-induction: 4.5 h; library: site-saturation at positions 5, 18, 19, 20
# 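Also: peptides expressed intracellularly from a pBAD plasmid library in pooled LB shake-flask culture, induced with 0.3% L-arabinose, DNA abundance read by NGS, three biological replicates, DESeq2 with apeglm shrinkage.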
row,Sequence,shrunken log2 fold change
1,RRIRARPPRLPRPRPRPTARPRP,0.874
2,RRIRERPPRLPRPRPRPKRVPRP,-0.0417
3,RRIRRRPPRLPRPRPRPWEMPRP,-0.171
4,RRIRARPPRLPRPRPRPPWHPRP,0.342
5,RRIRRRPPRLPRPRPRPWMRPRP,0.172
6,RRIRRRPPRLPRPRPRPWARPRP,0.222
7,RRIRIRPPRLPRPRPRPKPDPRP,0.528
8,RRIRFRPPRLPRPRPRPMVEPRP,-0.0547
9,RRIRERPPRLPRPRPRPAINPRP,-0.257
10,RRIRLRPPRLPRPRPRPTARPRP,1.13
11,RRIRFRPPRLPRPRPRPSYIPRP,-0.41
12,RRIRGRPPRLPRPRPRPKKPPRP,-0.0158
13,RRIRERPPRLPRPRPRPSDTPRP,-0.287
14,RRIRSRPPRLPRPRPRPTGKPRP,0.274
15,RRIRGRPPRLPRPRPRPSFKPRP,-0.0759
16,RRIRCRPPRLPRPRPRPDSDPRP,-0.0612
17,RRIRFRPPRLPRPRPRPWDYPRP,-0.387
18,RRIRLRPPRLPRPRPRPRPGPRP,0.687
19,RRIRMRPPRLPRPRPRPPMFPRP,0.225
20,RRIRYRPPRLPRPRPRPIRAPRP,0.0501
21,RRIRTRPPRLPRPRPRPAMLPRP,-0.0605
22,RRIRWRPPRLPRPRPRPLTHPRP,-0.00362
23,RRIRWRPPRLPRPRPRPWNCPRP,-0.116
24,RRIRARPPRLPRPRPRPLHIPRP,-0.559
25,RRIRTRPPRLPRPRPRPVDSPRP,0.0391

row,Sequence,shrunken log2 fold change
1,RRIRQRPPRLPRPRPRPRSSPRP,0.0377
2,RRIRPRPPRLPRPRPRPCAKPRP,-0.0518
3,RRIRVRPPRLPRPRPRPCRMPRP,-0.0641
4,RRIRQRPPRLPRPRPRPPCAPRP,0.293
5,RRIRDRPPRLPRPRPRPPFYPRP,-0.213
6,RRIRIRPPRLPRPRPRPLLRPRP,-0.239
7,RRIRERPPRLPRPRPRPHCLPRP,-0.138
8,RRIRLRPPRLPRPRPRPRSAPRP,0.29
9,RRIRARPPRLPRPRPRPTPNPRP,0.602
10,RRIRGRPPRLPRPRPRPYYNPRP,-0.48
11,RRIRVRPPRLPRPRPRPMKQPRP,-0.0165
12,RRIRNRPPRLPRPRPRPTNWPRP,0.31
13,RRIRIRPPRLPRPRPRPVCYPRP,-0.633
14,RRIRCRPPRLPRPRPRPPKDPRP,0.261
15,RRIRVRPPRLPRPRPRPESKPRP,0.00683
16,RRIRMRPPRLPRPRPRPRSMPRP,-0.00173
17,RRIRLRPPRLPRPRPRPRFSPRP,0.0406
18,RRIRSRPPRLPRPRPRPKFEPRP,0.12
19,RRIRTRPPRLPRPRPRPNIEPRP,0.105
20,RRIRIRPPRLPRPRPRPERFPRP,-0.0158
21,RRIRWRPPRLPRPRPRPANRPRP,0.0566
22,RRIRKRPPRLPRPRPRPNVMPRP,-0.122
23,RRIRHRPPRLPRPRPRPKNTPRP,-0.497
24,RRIRYRPPRLPRPRPRPIAAPRP,-0.158
25,RRIRIRPPRLPRPRPRPAQYPRP,-0.13

row,Sequence,shrunken log2 fold change
1,RRIRCRPPRLPRPRPRPGMYPRP,-0.848
2,RRIRQRPPRLPRPRPRPRVFPRP,-0.0984
3,RRIRFRPPRLPRPRPRPHITPRP,-0.734
4,RRIRKRPPRLPRPRPRPLGSPRP,-0.115
5,RRIRMRPPRLPRPRPRPHTHPRP,-0.00443
6,RRIRFRPPRLPRPRPRPWYNPRP,-0.134
7,RRIRDRPPRLPRPRPRPDDRPRP,0.108
8,RRIRARPPRLPRPRPRPMYSPRP,-0.08
9,RRIRFRPPRLPRPRPRPGQAPRP,0.0631
10,RRIRARPPRLPRPRPRPWGVPRP,0.329
11,RRIRPRPPRLPRPRPRPNHWPRP,-0.0328
12,RRIRHRPPRLPRPRPRPDAFPRP,-0.0702
13,RRIRNRPPRLPRPRPRPSQPPRP,-0.0682
14,RRIRKRPPRLPRPRPRPSMMPRP,0.677
15,RRIRHRPPRLPRPRPRPIWQPRP,-0.123
16,RRIRGRPPRLPRPRPRPRGIPRP,1.23
17,RRIRKRPPRLPRPRPRPKKTPRP,0.0396
18,RRIRERPPRLPRPRPRPSMNPRP,-0.573
19,RRIRDRPPRLPRPRPRPNAMPRP,-0.0158
20,RRIRWRPPRLPRPRPRPAQAPRP,0.237
21,RRIRCRPPRLPRPRPRPPWRPRP,0.751
22,RRIRLRPPRLPRPRPRPMNQPRP,-0.302
23,RRIRFRPPRLPRPRPRPDWGPRP,0.00855
24,RRIRDRPPRLPRPRPRPCCNPRP,0.255
25,RRIRGRPPRLPRPRPRPRIAPRP,0.519

row,Sequence,shrunken log2 fold change
1,RRIRIRPPRLPRPRPRPCWAPRP,-0.283
2,RRIRSRPPRLPRPRPRPKRCPRP,-0.0384
3,RRIRQRPPRLPRPRPRPVREPRP,-0.00762
4,RRIRFRPPRLPRPRPRPWTTPRP,-0.0381
5,RRIRLRPPRLPRPRPRPEGDPRP,0.0662
6,RRIRIRPPRLPRPRPRPSKGPRP,-0.142
7,RRIRKRPPRLPRPRPRPSRTPRP,0.391
8,RRIRLRPPRLPRPRPRPLPLPRP,0.338
9,RRIRARPPRLPRPRPRPTDDPRP,0.332
10,RRIRVRPPRLPRPRPRPADGPRP,0.000767
11,RRIRERPPRLPRPRPRPGEHPRP,0.0251
12,RRIRYRPPRLPRPRPRPFTVPRP,-0.177
13,RRIRDRPPRLPRPRPRPMQAPRP,-0.00208
14,RRIRPRPPRLPRPRPRPGPLPRP,0.193
15,RRIRERPPRLPRPRPRPFCQPRP,-0.528
16,RRIRHRPPRLPRPRPRPSWMPRP,-0.419
17,RRIRDRPPRLPRPRPRPWVNPRP,0.0215
18,RRIRPRPPRLPRPRPRPLCEPRP,0.0379
19,RRIRTRPPRLPRPRPRPSESPRP,0.122
20,RRIRLRPPRLPRPRPRPCQKPRP,-0.17
21,RRIRERPPRLPRPRPRPHPLPRP,-0.0971
22,RRIRPRPPRLPRPRPRPHWKPRP,-0.131
23,RRIRNRPPRLPRPRPRPQQWPRP,-0.0346
24,RRIRTRPPRLPRPRPRPFAPPRP,0.163
25,RRIRYRPPRLPRPRPRPEDVPRP,-0.00968

row,Sequence,shrunken log2 fold change
1,RRIRARPPRLPRPRPRPGCYPRP,-0.00374
2,RRIRDRPPRLPRPRPRPPHIPRP,-0.213
3,RRIRNRPPRLPRPRPRPISMPRP,-0.0881
4,RRIRMRPPRLPRPRPRPPDQPRP,2.01
5,RRIRQRPPRLPRPRPRPGDNPRP,-0.203
6,RRIRPRPPRLPRPRPRPKYVPRP,-0.132
7,RRIRCRPPRLPRPRPRPPMVPRP,-0.147
8,RRIRQRPPRLPRPRPRPTLVPRP,0.186
9,RRIRDRPPRLPRPRPRPAWWPRP,0.388
10,RRIRWRPPRLPRPRPRPANSPRP,0.0236
11,RRIRLRPPRLPRPRPRPFLAPRP,-0.141
12,RRIRNRPPRLPRPRPRPDIHPRP,-0.0173
13,RRIRSRPPRLPRPRPRPKHNPRP,-0.286
14,RRIRWRPPRLPRPRPRPSNLPRP,-0.0676
15,RRIRFRPPRLPRPRPRPMIVPRP,-0.105
16,RRIRYRPPRLPRPRPRPEHSPRP,-0.425
17,RRIRGRPPRLPRPRPRPIQDPRP,0.391
18,RRIRWRPPRLPRPRPRPTELPRP,0.135
19,RRIRLRPPRLPRPRPRPRCCPRP,0.0851
20,RRIRMRPPRLPRPRPRPNNFPRP,-0.169
21,RRIRYRPPRLPRPRPRPHTQPRP,-1.1
22,RRIRPRPPRLPRPRPRPGDTPRP,-0.0266
23,RRIRTRPPRLPRPRPRPKIQPRP,-0.0936
24,RRIRARPPRLPRPRPRPKISPRP,0.173
25,RRIRLRPPRLPRPRPRPRKQPRP,0.0587

row,Sequence,shrunken log2 fold change
1,RRIRARPPRLPRPRPRPGGSPRP,0.535
2,RRIRDRPPRLPRPRPRPLGSPRP,0.2
3,RRIRMRPPRLPRPRPRPYIHPRP,-0.262
4,RRIRIRPPRLPRPRPRPFIQPRP,-0.551
5,RRIRYRPPRLPRPRPRPYFCPRP,-1.09
6,RRIRERPPRLPRPRPRPINCPRP,-0.00179
7,RRIRLRPPRLPRPRPRPSPGPRP,0.0266
8,RRIRQRPPRLPRPRPRPWTPPRP,-0.061
9,RRIRHRPPRLPRPRPRPIHKPRP,-1.25
10,RRIRTRPPRLPRPRPRPDEDPRP,0.0169
11,RRIRERPPRLPRPRPRPTRVPRP,-0.0943
12,RRIRTRPPRLPRPRPRPQQMPRP,-0.0941
13,RRIRFRPPRLPRPRPRPLKWPRP,-0.13
14,RRIRKRPPRLPRPRPRPNGYPRP,0.0664
15,RRIRLRPPRLPRPRPRPVSIPRP,-0.321
16,RRIRTRPPRLPRPRPRPSYGPRP,-0.259
17,RRIRNRPPRLPRPRPRPKSNPRP,-0.294
18,RRIRPRPPRLPRPRPRPMQKPRP,0.0491
19,RRIRQRPPRLPRPRPRPDWPPRP,0.416
20,RRIRDRPPRLPRPRPRPHTHPRP,-0.0285
21,RRIRHRPPRLPRPRPRPRYDPRP,-0.0205
22,RRIRMRPPRLPRPRPRPIQDPRP,-0.114
23,RRIRQRPPRLPRPRPRPKGVPRP,-0.00208
24,RRIRNRPPRLPRPRPRPQVWPRP,0.0895
25,RRIRIRPPRLPRPRPRPAHMPRP,-0.303
